{
  "source": "patent US20140141456",
  "proteins": {"B1": {"name": "PAPP-A2 (recombinant, in medium from 293T cells transfected with cDNA encoding PAPP-A2, pPA2; also purified PAPP-A2) (protein)", "chain": "SPPEESNQNGGEGSYREAETFNSQVGLPILYFSGRRERLLLRPEVLAEIPREAFTVEAWVKPEGGQNNPAIIAGVFDNCSHTVSDKGWALGIRSGKDKGKRDARFFFSLCTDRVKKATILISHSRYQPGTWTHVAATYDGRHMALYVDGTQVASSLDQSGPLNSPFMASCRSLLLGGDSSEDGHYFRGHLGTLVFWSTALPQSHFQHSSQHSSGEEEATDLVLTASFEPVNTEWVPFRDEKYPRLEVLQGFEPEPEILSPLQPPLCGQTVCDNVELISQYNGYWPLRGEKVIRYQVVNICDDEGLNPIVSEEQIRLQHEALNEAFSRYNISWQLSVHQVHNSTLRHRVVLVNCEPSKIGNDHCDPECEHPLTGYDGGDCRLQGRCYSWNRRDGLCHVECNNMLNDFDDGDCCDPQVADVRKTCFDPDSPKRAYMSVKELKEALQLNSTHFLNIYFASSVREDLAGAATWPWDKDAVTHLGGIVLSPAYYGMPGHTDTMIHEVGHVLGLYHVFKGVSERESCNDPCKETVPSMETGDLCADTAPTPKSELCREPEPTSDTCGFTRFPGAPFTNYMSYTDDNCTDNFTPNQVARMHCYLDLVYQQWTESRKPTPIPIPPMVIGQTNKSLTIHWLPPISGVVYDRASGSLCGACTEDGTFRQYVHTASSRRVCDSSGYWTPEEAVGPPDVDQPCEPSLQAWSPEVHLYHMNMTVPCPTEGCSLELLFQHPVQADTLTLWVTSFFMESSQVLFDTEILLENKESVHLGPLDTFCDIPLTIKLHVDGKVSGVKVYTFDERIEIDAALLTSQPHSPLCSGCRPVRYQVLRDPPFASGLPVVVTHSHRKFTDVEVTPGQMYQYQVLAEAGGELGEASPPLNHIHGAPYCGDGKVSERLGEECDDGDLVSGDGCSKVCELEEGFNCVGEPSLCYMYEGDGICEPFERKTSIVDCGIYTPKGYLDQWATRAYSSHEDKKKCPVSLVTGEPHSLICTSYHPDLPNHRPLTGWFPCVASENETQDDRSEQPEGSLKKEDEVWLKVCFNRPGEARAIFIFLTTDGLVPGEHQQPTVTLYLTDVRGSNHSLGTYGLSCQHNPLIINVTHHQNVLFHHTTSVLLNFSSPRVGISAVALRTSSRIGLSAPSNCISEDEGQNHQGQSCIHRPCGKQDSCPSLLLDHADVVNCTSIGPGLMKCAITCQRGFALQASSGQYIRPMQKEILLTCSSGHWDQNVSCLPVDCGVPDPSLVNYANFSCSEGTKFLKRCSISCVPPAKLQGLSPWLTCLEDGLWSLPEVYCKLECDAPPIILNANLLLPHCLQDNHDVGTICKYECKPGYYVAESAEGKVRNKLLKIQCLEGGIWEQGSCIPVVCEPPPPVFEGMYECTNGFSLDSQCVLNCNQEREKLPILCTKEGLWTQEFKLCENLQGECPPPPSELNSVEYKCEQGYGIGAVCSPLCVIPPSDPVMLPENITADTLEHWMEPVKVQSIVCTGRRQWHPDPVLVHCIQSCEPFQADGWCDTINNRAYCHYDGGDCCSSTLSSKKVIPFAADCDLDECTCRDPKAEENQ"}},
  "key": {"[1]": {"target": "rIGFBP-5 (gift of D. Andress), P24593", "sequence (P24593 21-272)": "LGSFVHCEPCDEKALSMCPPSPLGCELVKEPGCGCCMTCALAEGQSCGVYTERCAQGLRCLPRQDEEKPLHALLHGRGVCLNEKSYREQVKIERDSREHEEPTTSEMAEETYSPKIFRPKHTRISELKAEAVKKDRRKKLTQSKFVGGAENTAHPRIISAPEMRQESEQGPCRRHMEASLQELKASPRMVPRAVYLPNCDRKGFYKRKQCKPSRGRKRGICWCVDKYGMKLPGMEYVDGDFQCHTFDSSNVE"}, "[2]": {"target": "rIGFBP-3 (gift of D. Powell), P17936", "sequence (P17936 28-291)": "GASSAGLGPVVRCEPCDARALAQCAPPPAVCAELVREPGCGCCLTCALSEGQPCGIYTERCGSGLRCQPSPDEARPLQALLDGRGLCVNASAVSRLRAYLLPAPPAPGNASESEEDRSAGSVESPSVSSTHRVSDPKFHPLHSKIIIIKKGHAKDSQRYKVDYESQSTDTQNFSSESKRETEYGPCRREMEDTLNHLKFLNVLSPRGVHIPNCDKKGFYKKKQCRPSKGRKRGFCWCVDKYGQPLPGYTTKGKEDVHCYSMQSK"}, "[3]": {"target": "C-terminally c-myc tagged rIGFBP-5 (human IGFBP-5 with myc epitope and His6, expressed in mammalian cells), P24593", "sequence (P24593 other isoform, or with tags, fused parts or gaps)": "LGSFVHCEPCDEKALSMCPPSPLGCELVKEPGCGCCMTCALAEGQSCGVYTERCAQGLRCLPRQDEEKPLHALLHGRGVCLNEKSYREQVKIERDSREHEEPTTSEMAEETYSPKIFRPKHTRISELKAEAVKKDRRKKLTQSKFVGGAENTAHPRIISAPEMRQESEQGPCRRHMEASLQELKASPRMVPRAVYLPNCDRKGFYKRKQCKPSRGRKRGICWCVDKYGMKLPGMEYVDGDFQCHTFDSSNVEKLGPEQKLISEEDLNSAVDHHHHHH"}},
  "data": [
    {"protein": "B1", "values": [
      {"measurement": "activity assessed by ligand blotting using radiolabeled IGF-II", "setting": "[1]", "value": "IGFBP-5 showed complete cleavage"},
      {"measurement": "activity assessed by ligand blotting using radiolabeled IGF-II", "setting": "[2]", "value": "IGFBP-3 was partially degraded"},
      {"measurement": "Proteolytic activity was assessed by Western blotting using anti-c-myc", "setting": "[3]", "value": "In the absence of inhibitors, wild-type PAPP-A2 degraded all rIGFBP-5 (lane 3)"}
    ]}
  ]
}
